Data: the supplement of paper PMC9732359
± gives the uncertainty stated by the source.

Assay: protein stability index of a GFP-peptide fusion (yeast GPS) (PSI 1-4); higher = more stable; sorted into four equal gates, so the index is relative within each strain
How it was run: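 Tiled 17-residue peptides from yeast proteins were fused downstream of GFP on a plasmid that also expresses Cherry, and the pooled library was carried in yeast. Mid-log cultures grown in leucine-free medium were sorted into four equal gates by GFP/Cherry fluorescence ratio. Plasmids from each gate were PCR-amplified and Illumina-sequenced, and reads were assigned to strains by barcodes. Each peptide's protein stability index is the sum, over gates, of the gate's read frequency multiplied by its gate number.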

Sequence	protein stability index (doa10∆)	protein stability index (pdr5∆)	protein stability index (san1∆)	protein stability index (ubr1∆)
LKCAERQLTSMEFSNLY [NUT1]	2.06 ± 0.054	1.87 ± 0.034	1.65 ± 0.072	2.17 ± 0.032
TQLKKRAVSGVELRIYV [POP7]	2.66 ± 0.13	2.23 ± 0.11	2.44 ± 0.14	2.78 ± 0.16
DLMDEELRKHAQKRVSN [SKI6]	3.38 ± 0.16	3.45 ± 0.11	2.8 ± 0.085	3.21 ± 0.077
LFSPEEVRAISVAKIRF [RPO21]	2.17 ± 0.1	2.31 ± 0.088	2.41 ± 0.096	2.39 ± 0.07
VIDGKLPFMQNAGPNSN [YDL088C/ASM4]	2.93 ± 0.049	3.04 ± 0.054	2.91 ± 0.037	2.92 ± 0.04
STNHPDYDVSKKASEIS [SRP14]	–	3 ± 0.24	–	–
TKHPSLKTLTHKQIHTT [POP7]	2.21 ± 0.039	2.4 ± 0.04	2.21 ± 0.05	2.48 ± 0.04
AGKQLEDGRTLSDYNIQ [RPS31]	2.81 ± 0.11	2.94 ± 0.16	3.6 ± 0.094	3.15 ± 0.1
DNVSFIEEAKSIRRQDY [REC8]	2.85 ± 0.12	3.06 ± 0.11	3.28 ± 0.09	3.15 ± 0.08
MPGMPNMPGMPKVTPQM [SRP54]	3.06 ± 0.17	3.2 ± 0.21	2.65 ± 0.18	3.34 ± 0.1
LIQSYSLLDKPDEAIEK [FAS1]	2.82 ± 0.087	2.75 ± 0.084	2.14 ± 0.087	2.79 ± 0.082
LIARRDDESPRFVMPNQ [RRP6]	3.27 ± 0.082	3.32 ± 0.07	3.21 ± 0.081	3.21 ± 0.061
DEVITEGQADIDMESDV [POP7]	3.18 ± 0.068	3.17 ± 0.058	3.33 ± 0.057	3.22 ± 0.048
AYHQKYVDEQSKNELKK [RPS16A]	2.5 ± 0.093	2.02 ± 0.094	2.02 ± 0.13	2.94 ± 0.12
TDYFLPKNYSLHGLRSF [YJL039C/NUP192]	1.96 ± 0.061	2.13 ± 0.065	2.12 ± 0.055	2.11 ± 0.064
DQNPIQVVVDAITNTGP [RPS5]	2.35 ± 0.053	2.79 ± 0.041	2.76 ± 0.061	2.13 ± 0.041
VGKLFRVGVVSILEAGD [RPL30]	1.99 ± 0.097	1.36 ± 0.093	1.58 ± 0.17	1.67 ± 0.081
LAQKKAHLAEIQLNGGS [RPL3]	–	–	–	2.85 ± 0.12
NISKSRAKPVTNSSILL [RRP6]	2.14 ± 0.063	2.23 ± 0.065	2.23 ± 0.1	2.38 ± 0.097
DQWLEEYKKHFPPNLEK [UBP6]	2.77 ± 0.081	3.06 ± 0.053	2.88 ± 0.05	2.96 ± 0.067
NNTVDPGFDEFQLIDMK [CSI1]	3.18 ± 0.064	3.12 ± 0.062	3.31 ± 0.038	3.21 ± 0.041
QIRSADEPMTTFYKCVN [RPC11]	2.26 ± 0.2	2.54 ± 0.078	2.2 ± 0.14	2.77 ± 0.085
MARGPKKHLKRLAAPHH [RPS4A]	2.9 ± 0.13	3 ± 0.087	3.1 ± 0.069	3.05 ± 0.054
HGGGNHQHIGKASTISR [RPL2A]	3.18 ± 0.051	3.31 ± 0.052	3.08 ± 0.039	3.11 ± 0.04
MNNGSGRYLLTPPDDLH [SRB8]	2.41 ± 0.06	2 ± 0.044	2.29 ± 0.13	2.63 ± 0.054
EEGETSRPLKKVKILEQ [SWI3]	3.01 ± 0.11	3.28 ± 0.092	2.86 ± 0.08	3.03 ± 0.053
LGSHSSSQKDGNDFKFN [REC8]	3.25 ± 0.07	3.24 ± 0.063	2.91 ± 0.081	3.22 ± 0.057
TEEVEALLQRLKTNGKQ [MTW1]	–	–	–	3.23 ± 0.21
